Drawing on publication PMC9482650, “Quantitative fragmentomics allow affinity mapping of interactomes” (Nature Communications, 2022), this text covers pKd for 3 molecules.

Among the targets are CASK, O14936; DLG1_3, Q12959; FRMPD2_1, Q68DX3; GIPC2, Q8TF65; GORASP1, Q9BQQ3; GRIP2_6, Q9C0E4; Inadl_1, Q8NI35; Inadl_6, Q8NI35; MAGI2_5, Q86UL8; MAST2, Q6P0Q8; SCRIB_1, Q14160.
What all share (experiment): holdup assay
What all share (design): key: below the threshold = too weak to quantify, mostly under pKd 3.1 to 4

The target in the next test is T1, APBA2_1, Q99767.
T1 sequence (Q99767 563-664, limits assumed, looked up): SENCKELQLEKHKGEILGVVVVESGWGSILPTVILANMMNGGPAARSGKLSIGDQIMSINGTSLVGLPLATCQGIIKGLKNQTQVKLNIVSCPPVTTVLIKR

For a further test, the target named is T2, ARHGEF11, O15085.
T2 sequence (O15085 42-136, limits assumed, looked up): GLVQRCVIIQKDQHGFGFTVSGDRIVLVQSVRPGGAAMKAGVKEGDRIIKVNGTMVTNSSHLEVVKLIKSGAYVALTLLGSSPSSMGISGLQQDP

Another test has as its target T3, DFNB31_1, Q9P202.
T3 sequence (Q9P202 135-233, limits assumed, looked up): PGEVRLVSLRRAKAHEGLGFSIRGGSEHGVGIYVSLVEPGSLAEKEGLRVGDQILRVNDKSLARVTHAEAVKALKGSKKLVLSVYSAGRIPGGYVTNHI

The target in the next test is T4, DFNB31_3, Q9P202.
T4 sequence (Q9P202 811-907, limits assumed, looked up): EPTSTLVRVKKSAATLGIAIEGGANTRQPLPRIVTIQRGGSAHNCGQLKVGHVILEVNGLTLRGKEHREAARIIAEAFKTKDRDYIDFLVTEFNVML

For another test, the target named is T5, GRIP1_4, Q9Y3R0.
T5 sequence (Q9Y3R0 467-571, limits assumed, looked up): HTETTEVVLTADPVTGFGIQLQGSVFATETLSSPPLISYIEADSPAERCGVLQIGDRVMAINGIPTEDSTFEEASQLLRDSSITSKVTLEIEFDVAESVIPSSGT

A further test concerns the target T6, GRIP1_5, Q9Y3R0.
T6 sequence (Q9Y3R0 568-668, limits assumed, looked up): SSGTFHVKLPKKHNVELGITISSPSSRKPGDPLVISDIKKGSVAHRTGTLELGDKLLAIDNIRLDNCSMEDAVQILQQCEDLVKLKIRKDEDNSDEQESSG

In the next test the target is T7, HTRA3, P83110.
T7 sequence (P83110 354-453, limits assumed, looked up): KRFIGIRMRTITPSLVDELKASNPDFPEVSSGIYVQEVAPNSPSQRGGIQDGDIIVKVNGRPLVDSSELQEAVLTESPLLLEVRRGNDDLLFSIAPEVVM

In a further test the target is T8, LIN7B, Q9HAP6.
T8 sequence (Q9HAP6 88-185, limits assumed, looked up): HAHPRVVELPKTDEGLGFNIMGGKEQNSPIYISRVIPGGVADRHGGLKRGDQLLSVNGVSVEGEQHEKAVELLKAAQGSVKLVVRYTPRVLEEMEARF

The target of the next test is T9, MPP7, Q5T2T1.
T9 sequence (Q5T2T1 134-230, limits assumed, looked up): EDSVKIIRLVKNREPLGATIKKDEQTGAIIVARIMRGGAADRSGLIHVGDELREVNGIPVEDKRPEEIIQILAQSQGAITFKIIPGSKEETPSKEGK

For a further test, the target named is T10, PDZRN3_1, Q9UPQ7.
T10 sequence (Q9UPQ7 244-349, limits assumed, looked up): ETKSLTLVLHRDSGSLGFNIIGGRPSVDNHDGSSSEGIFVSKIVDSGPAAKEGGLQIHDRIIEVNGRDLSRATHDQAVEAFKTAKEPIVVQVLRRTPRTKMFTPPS

For a further test, the target named is T11, RAPGEF6, Q8TEU7.
T11 sequence (Q8TEU7 525-625, limits assumed, looked up): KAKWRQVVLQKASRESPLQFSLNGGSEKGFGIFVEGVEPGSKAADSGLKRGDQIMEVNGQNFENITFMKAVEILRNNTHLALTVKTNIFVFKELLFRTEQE

The next test concerns the target T12, SNTB1, Q13884.
T12 sequence (Q13884 107-205, limits assumed, looked up): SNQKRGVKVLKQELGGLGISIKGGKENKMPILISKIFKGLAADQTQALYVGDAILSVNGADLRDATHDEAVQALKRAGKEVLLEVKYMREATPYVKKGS

Another test deals with T13, TX1BP3, O14907.
T13 sequence (O14907 10-122, limits assumed, looked up): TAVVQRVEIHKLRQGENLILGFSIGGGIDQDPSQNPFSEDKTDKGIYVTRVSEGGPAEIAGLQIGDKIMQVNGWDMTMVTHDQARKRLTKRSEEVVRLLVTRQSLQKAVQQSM

Where [1] appears, read: plain residues with an end cap or a label only (N-terminal biotin on a linker: ttds).
Setting [2] is: plain residues with an end cap or a label only (N-terminal biotin on a linker: ado-ado).
Where [3] appears, read: plain residues with an end cap or a label only (N-terminal biotin on a linker: ahx).

Chain of GIPC2, Q8TF65 (Q8TF65 112-203): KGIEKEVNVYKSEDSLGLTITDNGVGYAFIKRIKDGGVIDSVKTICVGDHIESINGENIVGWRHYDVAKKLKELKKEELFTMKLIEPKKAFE
Chain of DLG1_3, Q12959 (Q12959 457-571): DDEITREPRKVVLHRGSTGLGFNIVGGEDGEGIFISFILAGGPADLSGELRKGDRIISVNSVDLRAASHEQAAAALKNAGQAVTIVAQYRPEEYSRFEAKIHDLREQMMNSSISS
Chain of MAST2, Q6P0Q8 (Q6P0Q8 1099-1202): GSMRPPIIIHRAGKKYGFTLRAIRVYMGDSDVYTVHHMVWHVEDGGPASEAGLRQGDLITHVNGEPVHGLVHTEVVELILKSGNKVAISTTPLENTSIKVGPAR
Chain of FRMPD2_1, Q68DX3 (Q68DX3 770-861): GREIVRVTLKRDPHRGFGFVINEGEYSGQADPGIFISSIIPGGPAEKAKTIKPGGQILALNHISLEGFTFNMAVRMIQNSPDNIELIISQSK
Chain of GORASP1, Q9BQQ3 (Q9BQQ3 1-208): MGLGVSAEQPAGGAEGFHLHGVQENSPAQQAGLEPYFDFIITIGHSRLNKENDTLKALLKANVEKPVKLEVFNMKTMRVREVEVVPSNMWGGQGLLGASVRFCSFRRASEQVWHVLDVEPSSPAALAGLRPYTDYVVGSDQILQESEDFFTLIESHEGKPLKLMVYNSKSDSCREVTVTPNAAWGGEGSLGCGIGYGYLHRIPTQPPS
Chain of MAGI2_5, Q86UL8 (Q86UL8 915-1017): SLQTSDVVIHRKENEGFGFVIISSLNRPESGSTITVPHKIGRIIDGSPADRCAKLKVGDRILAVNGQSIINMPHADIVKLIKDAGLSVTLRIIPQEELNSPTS
Chain of Inadl_6, Q8NI35 (Q8NI35 1058-1167): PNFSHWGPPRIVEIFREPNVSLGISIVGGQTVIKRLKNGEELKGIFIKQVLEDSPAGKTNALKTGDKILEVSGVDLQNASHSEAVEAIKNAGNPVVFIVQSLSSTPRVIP
Chain of SCRIB_1, Q14160 (Q14160 718-814): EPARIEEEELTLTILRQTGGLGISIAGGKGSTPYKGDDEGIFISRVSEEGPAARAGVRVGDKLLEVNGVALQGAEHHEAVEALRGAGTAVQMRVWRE
Chain of CASK, O14936 (O14936 487-570): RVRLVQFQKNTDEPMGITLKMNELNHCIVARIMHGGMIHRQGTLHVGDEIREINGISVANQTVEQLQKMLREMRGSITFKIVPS
Chain of Inadl_1, Q8NI35 (Q8NI35 113-229): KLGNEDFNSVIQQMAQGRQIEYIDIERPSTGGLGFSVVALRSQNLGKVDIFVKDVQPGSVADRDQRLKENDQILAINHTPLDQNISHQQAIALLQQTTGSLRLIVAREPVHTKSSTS
Chain of GRIP2_6, Q9C0E4 (Q9C0E4 648-740): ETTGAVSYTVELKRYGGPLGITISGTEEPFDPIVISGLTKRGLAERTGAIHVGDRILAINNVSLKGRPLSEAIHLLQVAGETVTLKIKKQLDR

Take NPDALPETLV [ARHGAP6, O43182]: the pKd entry with APBA2_1, Q99767 (setting [1]) is “below the threshold”; with ARHGEF11, O15085 (setting [1]) it was 4.09; with CASK, O14936 (setting [1]) it was “below the threshold”; with DFNB31_1, Q9P202 (setting [1]) it was 4.1; with DFNB31_3, Q9P202 (setting [1]), 4.1; with DLG1_3, Q12959 (setting [1]), 3.5. For the same molecule, the pKd result with FRMPD2_1, Q68DX3 (setting [1]) is “below the threshold”; with GIPC2, Q8TF65 (setting [1]), 3.49; with GORASP1, Q9BQQ3 (setting [1]), “below the threshold”; in the test with GRIP1_4, Q9Y3R0 (setting [1]), “below the threshold”; with GRIP1_5, Q9Y3R0 (setting [1]), “below the threshold”; with GRIP2_6, Q9C0E4 (setting [1]) it was “below the threshold”. Besides, the pKd result is “below the threshold” with HTRA3, P83110 (setting [1]); “below the threshold” with Inadl_1, Q8NI35 (setting [1]); 4.3 with Inadl_6, Q8NI35 (setting [1]); 3.77 in the test with LIN7B, Q9HAP6 (setting [1]); 4.45 with MAGI2_5, Q86UL8 (setting [1]); 4.65 in the test with MAST2, Q6P0Q8 (setting [1]). The pKd entry in the test with MPP7, Q5T2T1 (setting [1]) is “below the threshold”; in the test with PDZRN3_1, Q9UPQ7 (setting [1]), 4.3; in the test with RAPGEF6, Q8TEU7 (setting [1]), “below the threshold”; with SCRIB_1, Q14160 (setting [1]) it was “below the threshold”; in the test with SNTB1, Q13884 (setting [1]), 4.86; with TX1BP3, O14907 (setting [1]), “below the threshold”.

PDSYHRRDFW [U2AF2, P26368]: the pKd result in the test with APBA2_1, Q99767 (setting [2]) was “below the threshold”; with ARHGEF11, O15085 (setting [2]), 3.6; in the test with CASK, O14936 (setting [2]), “below the threshold”; in the test with DFNB31_1, Q9P202 (setting [2]) it was 3.57; with DFNB31_3, Q9P202 (setting [2]), “below the threshold”; with DLG1_3, Q12959 (setting [2]) it was 3.72. Besides, the pKd result was “below the threshold” with FRMPD2_1, Q68DX3 (setting [2]); “below the threshold” with GIPC2, Q8TF65 (setting [2]); 3.52 with GORASP1, Q9BQQ3 (setting [2]); “below the threshold” in the test with GRIP1_4, Q9Y3R0 (setting [2]); “below the threshold” with GRIP1_5, Q9Y3R0 (setting [2]); “below the threshold” with GRIP2_6, Q9C0E4 (setting [2]). Also, the pKd in the test with HTRA3, P83110 (setting [2]) was 4.01; with Inadl_1, Q8NI35 (setting [2]), “below the threshold”; in the test with Inadl_6, Q8NI35 (setting [2]), “below the threshold”; in the test with LIN7B, Q9HAP6 (setting [2]), “below the threshold”; with MAGI2_5, Q86UL8 (setting [2]), “below the threshold”; with MAST2, Q6P0Q8 (setting [2]), “below the threshold”. Further, the pKd entry with MPP7, Q5T2T1 (setting [2]) was “below the threshold”; with PDZRN3_1, Q9UPQ7 (setting [2]), “below the threshold”; with RAPGEF6, Q8TEU7 (setting [2]) it was “below the threshold”; in the test with SCRIB_1, Q14160 (setting [2]), “below the threshold”; with SNTB1, Q13884 (setting [2]), “below the threshold”; in the test with TX1BP3, O14907 (setting [2]) it was “below the threshold”.

Turning to AKPQPVDSWV [ARVCF, O00192], the pKd result in the test with APBA2_1, Q99767 (setting [3]) is “below the threshold”; in the test with ARHGEF11, O15085 (setting [3]), “below the threshold”; in the test with CASK, O14936 (setting [3]), “below the threshold”; with DFNB31_1, Q9P202 (setting [3]), 4.28; with DFNB31_3, Q9P202 (setting [3]) it was “below the threshold”; with DLG1_3, Q12959 (setting [3]), “below the threshold”. Further, the pKd result with FRMPD2_1, Q68DX3 (setting [3]) is “below the threshold”; with GIPC2, Q8TF65 (setting [3]), “below the threshold”; with GORASP1, Q9BQQ3 (setting [3]), 4; with GRIP1_4, Q9Y3R0 (setting [3]) it was “below the threshold”; with GRIP1_5, Q9Y3R0 (setting [3]), “below the threshold”; with GRIP2_6, Q9C0E4 (setting [3]) it was “below the threshold”. For the same molecule, the pKd in the test with HTRA3, P83110 (setting [3]) was 5.51; with Inadl_1, Q8NI35 (setting [3]) it was “below the threshold”; with Inadl_6, Q8NI35 (setting [3]), 4.33; with LIN7B, Q9HAP6 (setting [3]), “below the threshold”; with MAGI2_5, Q86UL8 (setting [3]) it was “below the threshold”; with MAST2, Q6P0Q8 (setting [3]) it was 3.86. Also, the pKd result in the test with MPP7, Q5T2T1 (setting [3]) is “below the threshold”; with PDZRN3_1, Q9UPQ7 (setting [3]), “below the threshold”; with RAPGEF6, Q8TEU7 (setting [3]), “below the threshold”; with SCRIB_1, Q14160 (setting [3]), 3.74; with SNTB1, Q13884 (setting [3]), 3.5; with TX1BP3, O14907 (setting [3]) it was 4.92.
